Results taken from PMC3795721, “Screening for Protein-DNA Interactions by Automatable DNA-Protein Interaction ELISA”.

B1: 259 (dsDNA)
DNA 1: AAAAAAGTAGGTGCTGATGCTGGCCGAAAA
DNA 2: TTTTCGGCCAGCATCAGCACCTACTTTTTT
B2: 108 (dsDNA)
DNA 1: AAAAAAGGCGTCTGACTGTAACTCGTAAAA
DNA 2: TTTTACGAGTTACAGTCAGACGCCTTTTTT
B3: 64 (dsDNA)
DNA 1: AAAAAATCGGGCCCCGTTAGCACTCTAAAA
DNA 2: TTTTAGAGTGCTAACGGGGCCCGATTTTTT
B4: 276 (dsDNA)
DNA 1: AAAAAACATCGCTGTCGTTGACGTTGAAAA
DNA 2: TTTTCAACGTCAACGACAGCGATGTTTTTT
B5: 223 (dsDNA)
DNA 1: AAAAAAGGCCACGGTAACCCCTTTTGAAAA
DNA 2: TTTTCAAAAGGGGTTACCGTGGCCTTTTTT
B6: 270 (dsDNA)
DNA 1: AAAAAACATGTCGCACCTGTACTAACAAAA
DNA 2: TTTTGTTAGTACAGGTGCGACATGTTTTTT
B7: 287 (dsDNA)
DNA 1: AAAAAACACGCCATTGACACTGGTAAAAAA
DNA 2: TTTTTTACCAGTGTCAATGGCGTGTTTTTT
B8: 124 (dsDNA)
DNA 1: AAAAAAACTCACGGCGTCACTATGGTAAAA
DNA 2: TTTTACCATAGTGACGCCGTGAGTTTTTTT
B9: 294 (dsDNA)
DNA 1: AAAAAACGTGCGCGTGCATGTCATCGAAAA
DNA 2: TTTTCGATGACATGCACGCGCACGTTTTTT
B10: 313 (dsDNA)
DNA 1: AAAAAATCGCGAACGTACGTCCGCGGAAAA
DNA 2: TTTTCCGCGGACGTACGTTCGCGATTTTTT
B11: 110 (dsDNA)
DNA 1: AAAAAAGCGTAAGCCTTGACAGTCGTAAAA
DNA 2: TTTTACGACTGTCAAGGCTTACGCTTTTTT
B12: 31 (dsDNA)
DNA 1: AAAAAATCCACGACTCAGCAGCTCTTAAAA
DNA 2: TTTTAAGAGCTGCTGAGTCGTGGATTTTTT
B13: 44 (dsDNA)
DNA 1: AAAAAAGTACATGCGTAGATAATGTTAAAA
DNA 2: TTTTAACATTATCTACGCATGTACTTTTTT
B14: 239 (dsDNA)
DNA 1: AAAAAAGTCGTTACACGTATGCGTGCAAAA
DNA 2: TTTTGCACGCATACGTGTAACGACTTTTTT
B15: 233 (dsDNA)
DNA 1: AAAAAAGGTCCAGTCCACGTCATCAGAAAA
DNA 2: TTTTCTGATGACGTGGACTGGACCTTTTTT
B16: 153 (dsDNA)
DNA 1: AAAAAATGTATTCGTGTCCACTCCATAAAA
DNA 2: TTTTATGGAGTGGACACGAATACATTTTTT
B17: 109 (dsDNA)
DNA 1: AAAAAATACGTCTACGTGGTTGTCGTAAAA
DNA 2: TTTTACGACAACCACGTAGACGTATTTTTT
B18: 271 (dsDNA)
DNA 1: AAAAAACGTTGAACCTGGGCCTCAACAAAA
DNA 2: TTTTGTTGAGGCCCAGGTTCAACGTTTTTT
B19: 83 (dsDNA)
DNA 1: AAAAAATATGTAGCTGCCGTTACGCTAAAA
DNA 2: TTTTAGCGTAACGGCAGCTACATATTTTTT
B20: 97 (dsDNA)
DNA 1: AAAAAAAGTTTGACCTTGGCGTTCGTAAAA
DNA 2: TTTTACGAACGCCAAGGTCAAACTTTTTTT
B21: 54 (dsDNA)
DNA 1: AAAAAAGTCCGCCCTTAATTCATATTAAAA
DNA 2: TTTTAATATGAATTAAGGGCGGACTTTTTT
B22: 91 (dsDNA)
DNA 1: AAAAAAAGTGGCCGCTAGTCAACTCAAAAA
DNA 2: TTTTTGAGTTGACTAGCGGCCACTTTTTTT
B23: 57 (dsDNA)
DNA 1: AAAAAAAATTAGTCTCTTCGTCTCCCAAAA
DNA 2: TTTTGGGAGACGAAGAGACTAATTTTTTTT
B24: 101 (dsDNA)
DNA 1: AAAAAAGTCTAAGGACTTATAGCTGTAAAA
DNA 2: TTTTACAGCTATAAGTCCTTAGACTTTTTT
B25: 88 (dsDNA)
DNA 1: AAAAAATCAACCATTATGGTATTACTAAAA
DNA 2: TTTTAGTAATACCATAATGGTTGATTTTTT
B26: 173 (dsDNA)
DNA 1: AAAAAATACATTTGACTTTGGGTTTCAAAA
DNA 2: TTTTGAAACCCAAAGTCAAATGTATTTTTT
B27: 222 (dsDNA)
DNA 1: AAAAAAGGCGGTCGTAGTTGTGGGAGAAAA
DNA 2: TTTTCTCCCACAACTACGACCGCCTTTTTT
B28: 137 (dsDNA)
DNA 1: AAAAAAACTCTAGGTCAATATTATTCAAAA
DNA 2: TTTTGAATAATATTGACCTAGAGTTTTTTT
B29: 92 (dsDNA)
DNA 1: AAAAAAAGTCTGCGGCTGCAGGGCGGAAAA
DNA 2: TTTTCCGCCCTGCAGCCGCAGACTTTTTTT
B30: 117 (dsDNA)
DNA 1: AAAAAAATCAGCCTGACTCTGGGCGTAAAA
DNA 2: TTTTACGCCCAGAGTCAGGCTGATTTTTTT
B31: 260 (dsDNA)
DNA 1: AAAAAAGTATAACGTGTTGTTGACCGAAAA
DNA 2: TTTTCGGTCAACAACACGTTATACTTTTTT
B32: 43 (dsDNA)
DNA 1: AAAAAAAGGTCATTGCTGCTGGTGTTAAAA
DNA 2: TTTTAACACCAGCAGCAATGACCTTTTTTT
B33: 195 (dsDNA)
DNA 1: AAAAAATGGTCGTCGTACTCGTGGTCAAAA
DNA 2: TTTTGACCACGAGTACGACGACCATTTTTT
B34: 36 (dsDNA)
DNA 1: AAAAAATTTGGTCTTCGTCCTCGCTTAAAA
DNA 2: TTTTAAGCGAGGACGAAGACCAAATTTTTT

What follows are binders tested against T1, AtbZIP63 (Arabidopsis thaliana, UniProt B9DGI8 1-314) (assay: DPI-ELISA; DPI-ELISA, streptavidin 384-well plate, 1-2 pmol biotinylated dsDNA per well, crude native E. coli extract, anti-His detection; buffer as in Brand et al. [46],; high values mean tight binding). Conditions: tags: C-terminal His (pET-DEST42); chain copies: 2; label: 5' biotin on forward strand.
T1 sequence: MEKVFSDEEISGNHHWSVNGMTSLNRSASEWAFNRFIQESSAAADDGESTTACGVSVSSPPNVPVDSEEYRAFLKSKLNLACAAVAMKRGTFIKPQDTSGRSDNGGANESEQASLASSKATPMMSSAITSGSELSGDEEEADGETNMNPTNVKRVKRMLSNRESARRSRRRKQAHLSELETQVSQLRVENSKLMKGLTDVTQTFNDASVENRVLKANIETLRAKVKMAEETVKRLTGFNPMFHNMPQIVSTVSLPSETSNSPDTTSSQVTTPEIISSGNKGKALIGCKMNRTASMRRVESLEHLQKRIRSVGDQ
With B1 the binding signal was 1.92 relative normalized absorbance.
For B2, the binding signal was 2.54 relative normalized absorbance.
B3 was tested, and the binding signal was 2.04 relative normalized absorbance.
With B4 the binding signal was 2.02 relative normalized absorbance.
With B5 the binding signal was 2.06 relative normalized absorbance.
For B6, the binding signal was 1.93 relative normalized absorbance.
With B7 the binding signal was 1.99 relative normalized absorbance.
B8 was tested, and the binding signal was 2.46 relative normalized absorbance.
For B9, the binding signal was 1.97 relative normalized absorbance.
B10 was tested, and the binding signal was 2.62 relative normalized absorbance.
With B11 the binding signal was 1.94 relative normalized absorbance.
B12 was tested, and the binding signal was 2.32 relative normalized absorbance.
For B13, the binding signal was 2.11 relative normalized absorbance.
With B14 the binding signal was 2.62 relative normalized absorbance.
B15 was tested, and the binding signal was 2.57 relative normalized absorbance.
For B16, the binding signal was 1.89 relative normalized absorbance.
B17 was tested, and the binding signal was 2.98 relative normalized absorbance.

The binders below were run against WRKY33 cDBD (Arabidopsis thaliana, UniProt Q8S8P5 345-449) in the same assay as above. Conditions: tags: C-terminal His (pET-DEST42); label: 5' biotin on forward strand.
Sequence of WRKY33 cDBD (Q8S8P5 other isoform, or with tags, fused parts or gaps): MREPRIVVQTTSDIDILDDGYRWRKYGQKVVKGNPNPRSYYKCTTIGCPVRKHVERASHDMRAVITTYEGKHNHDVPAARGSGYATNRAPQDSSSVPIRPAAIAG
B18 was tested, and the binding signal was 2.33 relative normalized absorbance.
In the case of B2, the binding signal is reported as 2.35 relative normalized absorbance.
For B19, the binding signal was 2.34 relative normalized absorbance.
In the case of B20, the binding signal is reported as 2.28 relative normalized absorbance.
B21 was tested, and the binding signal was 2.35 relative normalized absorbance.
B4 was tested, and the binding signal was 2.34 relative normalized absorbance.
B22 was tested, and the binding signal was 2.25 relative normalized absorbance.
For B23, the binding signal was 2.01 relative normalized absorbance.
With B24 the binding signal was 2.37 relative normalized absorbance.
In the case of B25, the binding signal is reported as 2.02 relative normalized absorbance.
For B26, the binding signal was 2.31 relative normalized absorbance.
In the case of B27, the binding signal is reported as 2.35 relative normalized absorbance.
In the case of B28, the binding signal is reported as 2.3 relative normalized absorbance.
With B29 the binding signal was 2.36 relative normalized absorbance.
In the case of B30, the binding signal is reported as 2.01 relative normalized absorbance.
For B31, the binding signal was 2.33 relative normalized absorbance.
In the case of B14, the binding signal is reported as 2.32 relative normalized absorbance.
With B32 the binding signal was 2.19 relative normalized absorbance.
In the case of B15, the binding signal is reported as 2.34 relative normalized absorbance.
For B33, the binding signal was 2.34 relative normalized absorbance.
With B34 the binding signal was 2.17 relative normalized absorbance.
